This is an account of results in patent publication US20250092148A1 (Kyowa Kirin, published 2025).

For one experiment, the target named is T1, human CD131 W163A (human, UniProt P32927 17-897).
T1 construct: whole, on cells
T1 sequence (looked up): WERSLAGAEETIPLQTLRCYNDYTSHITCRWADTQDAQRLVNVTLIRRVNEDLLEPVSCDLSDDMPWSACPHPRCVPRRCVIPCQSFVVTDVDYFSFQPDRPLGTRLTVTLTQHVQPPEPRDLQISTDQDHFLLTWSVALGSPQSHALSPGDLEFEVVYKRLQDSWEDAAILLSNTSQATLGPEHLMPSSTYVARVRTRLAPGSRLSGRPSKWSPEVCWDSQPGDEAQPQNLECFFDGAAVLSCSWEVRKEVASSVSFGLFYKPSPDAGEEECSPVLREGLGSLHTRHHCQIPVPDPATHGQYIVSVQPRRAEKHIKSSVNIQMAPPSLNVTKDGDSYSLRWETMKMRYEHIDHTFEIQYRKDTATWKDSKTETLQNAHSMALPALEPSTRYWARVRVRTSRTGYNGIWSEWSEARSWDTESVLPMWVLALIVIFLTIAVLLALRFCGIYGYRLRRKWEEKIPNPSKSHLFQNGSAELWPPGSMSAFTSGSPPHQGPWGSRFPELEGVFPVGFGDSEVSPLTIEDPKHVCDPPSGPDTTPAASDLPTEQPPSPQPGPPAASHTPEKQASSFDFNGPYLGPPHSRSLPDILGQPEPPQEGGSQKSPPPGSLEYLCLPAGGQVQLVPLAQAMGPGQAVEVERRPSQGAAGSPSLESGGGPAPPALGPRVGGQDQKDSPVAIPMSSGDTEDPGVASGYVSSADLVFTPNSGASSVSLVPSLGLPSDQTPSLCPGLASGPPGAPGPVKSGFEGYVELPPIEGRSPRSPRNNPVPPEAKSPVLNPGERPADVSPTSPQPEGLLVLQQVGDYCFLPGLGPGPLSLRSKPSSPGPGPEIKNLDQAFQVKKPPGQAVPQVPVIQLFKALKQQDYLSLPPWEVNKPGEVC
The experiment is described as follows: flow cytometry, Fab on HEK-293T cells expressing the mutant; labels of this column stand one row too low, mutant assigned after shifting them up (text: W163 is an epitope residue). A general note: In flow cytometry, cells or beads pass a laser one at a time.

For a further experiment, the target named is T2, human CD116 N156A (human, UniProt P15509 23-400).
T2 construct: whole, on cells
T2 sequence (looked up): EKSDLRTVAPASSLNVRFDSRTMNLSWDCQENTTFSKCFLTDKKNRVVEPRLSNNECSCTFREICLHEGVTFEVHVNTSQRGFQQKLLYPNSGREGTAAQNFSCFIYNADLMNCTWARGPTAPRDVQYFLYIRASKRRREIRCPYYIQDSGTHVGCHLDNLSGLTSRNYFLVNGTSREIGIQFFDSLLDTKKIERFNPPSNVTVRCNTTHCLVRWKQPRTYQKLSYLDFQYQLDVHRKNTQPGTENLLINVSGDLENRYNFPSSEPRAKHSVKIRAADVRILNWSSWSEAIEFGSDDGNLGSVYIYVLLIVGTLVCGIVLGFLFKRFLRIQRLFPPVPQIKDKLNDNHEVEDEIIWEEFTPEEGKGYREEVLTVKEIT
The experiment is described as follows: flow cytometry, Fab 0.25 µg/mL on HEK-293T cells expressing the mutant.

The next experiment deals with T3, human CD116 K158A (human, UniProt P15509 23-400).
T3 construct: whole, on cells
T3 sequence (looked up): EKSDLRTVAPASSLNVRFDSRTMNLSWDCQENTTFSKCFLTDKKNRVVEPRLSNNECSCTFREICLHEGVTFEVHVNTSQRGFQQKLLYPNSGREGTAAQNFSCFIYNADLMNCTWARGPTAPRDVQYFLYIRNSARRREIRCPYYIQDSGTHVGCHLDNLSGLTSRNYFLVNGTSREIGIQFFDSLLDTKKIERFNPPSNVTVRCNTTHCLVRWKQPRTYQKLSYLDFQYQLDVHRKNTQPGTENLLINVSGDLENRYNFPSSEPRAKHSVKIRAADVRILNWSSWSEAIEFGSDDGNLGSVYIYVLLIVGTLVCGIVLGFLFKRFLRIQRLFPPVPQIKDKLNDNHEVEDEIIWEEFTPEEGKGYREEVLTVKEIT
The experiment is described as above.

The target in a further experiment is T4, human CD116 Y248A (human, UniProt P15509 23-400).
T4 construct: whole, on cells
T4 sequence (looked up): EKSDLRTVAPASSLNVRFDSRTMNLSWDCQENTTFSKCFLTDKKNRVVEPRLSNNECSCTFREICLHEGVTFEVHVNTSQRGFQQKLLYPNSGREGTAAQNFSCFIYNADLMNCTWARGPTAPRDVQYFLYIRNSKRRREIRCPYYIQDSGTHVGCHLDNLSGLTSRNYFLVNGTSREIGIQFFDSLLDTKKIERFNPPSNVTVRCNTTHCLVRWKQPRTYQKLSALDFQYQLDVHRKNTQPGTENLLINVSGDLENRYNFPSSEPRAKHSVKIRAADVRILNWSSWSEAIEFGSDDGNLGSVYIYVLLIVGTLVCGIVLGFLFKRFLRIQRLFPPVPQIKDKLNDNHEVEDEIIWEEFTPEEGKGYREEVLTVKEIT
Described as above.

In another experiment the target is T5, human CD116 F251A (human, UniProt P15509 23-400).
T5 construct: whole, on cells
T5 sequence (looked up): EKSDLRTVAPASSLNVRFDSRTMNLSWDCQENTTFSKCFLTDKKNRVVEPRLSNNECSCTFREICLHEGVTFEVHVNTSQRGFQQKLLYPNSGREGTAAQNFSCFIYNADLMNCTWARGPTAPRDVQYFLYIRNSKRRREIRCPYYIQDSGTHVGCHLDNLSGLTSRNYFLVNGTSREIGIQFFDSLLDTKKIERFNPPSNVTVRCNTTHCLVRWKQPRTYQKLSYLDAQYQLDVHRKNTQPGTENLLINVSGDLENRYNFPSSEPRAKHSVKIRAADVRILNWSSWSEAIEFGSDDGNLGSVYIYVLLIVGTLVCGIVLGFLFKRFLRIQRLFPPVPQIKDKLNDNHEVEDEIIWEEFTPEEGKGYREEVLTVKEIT
Described as above.

B1: anti-CD131 antibody 131-B2, Fab (Fab, V domains shown)
VH: QVQLVQSGAEVKEPGASVKISCKASGYTFTNDYMHWVRQAPGQGLEWMGIINPTGGGTSYAQKFRGRVTMTRDTSTSTVYMELSSLRSEDTAVFYCARERYYGSGTYFNIGLWYFDLWGRGTLVTVSS
VL: not shown
notes: Fab made from the antibody by an enzyme treatment
B1: the “Binding Reactivity (% WT)” value in the experiment with human CD131 W163A was -9 % WT.

B2: anti-CD116 antibody 116-408, Fab (Fab, V domains shown)
VH: EVQLVQSGAEVKKPGASVKVSCKVSGYTLTDLSMHWVRQAPGKGLEWMGGFDPEDGERIYAQKFQGRVTMTEDTSTDTAYMELSSLRSEDTAVYYCATGLFYYYYGMDVWGQGTMVTVSS
VL: not shown
Consider B2, for which the “Binding Reactivity (% WT)” value with human CD116 N156A came out at 5.8 % WT; with human CD116 K158A, 35.2 % WT; with human CD116 Y248A, 78.2 % WT; with human CD116 F251A, 99.3 % WT.
